Four molecules from paper PMC3975500 (Cell Research, 2014) can be followed below.

B2: Lsm5 (full length), subunit of the crystallized Lsm1-7 complex (natural protein)
chain: MSLPEILPLEVIDKTINQKVLIVLQSNREFEGTLVGFDDFVNVILEDAVEWLIDPEDESRNEKVMQHHGRMLLSGNNIAILVPGGKKTPTEAL

Data set [1] addresses T1, Lsm7 (full length), subunit of the crystallized Lsm1-7 complex (S. cerevisiae, UniProt P53905 1-115).
T1 sequence: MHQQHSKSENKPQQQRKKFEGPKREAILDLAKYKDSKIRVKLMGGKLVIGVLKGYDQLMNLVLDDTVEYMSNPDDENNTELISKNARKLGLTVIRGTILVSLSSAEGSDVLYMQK
Kind of data set: crystal structure.

Data set [2] concerns the target B2. The data set is described as follows: crystal structure.
In data set [3] the target is T2, Lsm1-7 heptamer (Saccharomyces cerevisiae, UniProt P47017;P38203;P57743;P40070;P40089;Q06406;P53905 …).
T2 sequence 1: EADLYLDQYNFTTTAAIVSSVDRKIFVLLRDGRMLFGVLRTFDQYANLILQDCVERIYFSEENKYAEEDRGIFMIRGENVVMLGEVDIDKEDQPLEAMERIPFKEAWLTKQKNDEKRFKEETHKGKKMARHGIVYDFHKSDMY
T2 sequence 2: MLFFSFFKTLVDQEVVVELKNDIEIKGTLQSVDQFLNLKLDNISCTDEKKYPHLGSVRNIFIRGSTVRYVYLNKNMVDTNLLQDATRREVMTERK
T2 sequence 3: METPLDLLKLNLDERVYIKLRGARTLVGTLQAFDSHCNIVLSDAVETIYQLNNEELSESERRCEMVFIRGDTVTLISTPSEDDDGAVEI
T2 sequence 4: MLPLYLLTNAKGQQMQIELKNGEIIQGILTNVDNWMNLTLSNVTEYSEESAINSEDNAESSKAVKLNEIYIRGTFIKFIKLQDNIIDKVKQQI
T2 sequence 5: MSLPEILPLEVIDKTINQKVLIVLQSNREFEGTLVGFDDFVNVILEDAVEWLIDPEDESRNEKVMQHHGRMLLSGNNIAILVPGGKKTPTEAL
T2 sequence 6: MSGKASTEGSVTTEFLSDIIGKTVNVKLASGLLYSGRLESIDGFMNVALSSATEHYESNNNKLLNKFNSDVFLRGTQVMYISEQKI
T2 sequence 7: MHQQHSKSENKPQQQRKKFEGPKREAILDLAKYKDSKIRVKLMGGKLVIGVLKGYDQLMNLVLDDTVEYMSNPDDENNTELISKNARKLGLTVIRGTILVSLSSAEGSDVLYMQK
Kind of data set: BLI.

B1: Lsm4 (residues 1-93), subunit of the crystallized Lsm1-7 complex (domain or fragment)
chain: MLPLYLLTNAKGQQMQIELKNGEIIQGILTNVDNWMNLTLSNVTEYSEESAINSEDNAESSKAVKLNEIYIRGTFIKFIKLQDNIIDKVKQQI
In the case of B1, the binding result in data set [1] is “binds”. The same measure, in the same setting: as for B2, the entry is “binds”.

B3: Lsm6 (full length), subunit of the crystallized Lsm1-7 complex (natural protein)
chain: MSGKASTEGSVTTEFLSDIIGKTVNVKLASGLLYSGRLESIDGFMNVALSSATEHYESNNNKLLNKFNSDVFLRGTQVMYISEQKI
With B3, in data set [2], the binding result is “binds”. Consider UUUUUUUU (ssRNA) [oligo-U (U8)], for which the Kd in data set [3] is ~2000 nM.

One may read the Kd as the equilibrium constant for the complex coming apart. A high value points to weaker binding.
